# Test results from patent publication US9803013B2, “Biological materials and uses thereof” (BioInvent International AB, priority 2005, dated 2017).
# Like-named read-outs stand apart in the source and are kept apart here.
# B1: B11: fully human IgG1 antibody specific for ICAM-1; VH and VL sequences of FIG. 10 (SEQ ID NOs. 6 and 8) (antibody, listed as Homo sapiens, V domains shown)
# VH: EVQLLESGGGLVQPGGSLRLSCAASGFTFSNAWMSWVRQAPGKGLEWVAFIWYDGSNKYYADSVKGRFTISRDNSKNTLYLQMNSLRAEDTAVYYCARYSGWYFDYWGQGTLVTVSS
# VL: QSVLTQPPSASGTPGQRVTISCTGSSSNIGAGYDVHWYQQLPGTAPKLLIYDNNNRPSGVPDRFSGSKSGTSASLAISGLRSEDEADYYCQSYDSSLSAWLFGGGTKLTVLG
# Assays:
# MDA MB 435 = experiment: IgG binding to tumour cell line, flow cytometry MFI; design: species or system human; conditions: MDA MB 435, Melanoma
# Description: The antigen distribution of human antibody targeted antigens, mainly for B11, on different carcinoma cell lines was investigated. Cells (MCF-7 and MDA MB 435S breast carcinoma, JAR and JEG-3 chorio-carcinoma, A549 lung carcinoma, TCC-SUP urinary bladder carcinoma, MDA MB 435 melanoma, HPAC, PANC-1 and BxPC-3 pancreatic carcinoma, PC-3 and DU145 prostate carcinoma, LS174 T, CaCo2, and Lovo colorectal carcinoma, and THP-1 monocytic leukaemia cells), were washed in PBS, and resuspended at 4×10^6 cells/ml in Complete Medium (200,000 cells/50 […] sample). […] Cells were incubated with either of the antibodies for 1 hour on ice, washed by resuspension in PBS/BSA 0.5%, centrifuged at 1200 rpm for 5 min, and complete aspiration of the supernatants was undertaken. Cells were incubated with PE-conjugated Goat F(ab′)2 anti-Human IgG (Caltag Laboratories, Cat no: H10104), diluted 1/50 in PBS/BSA 0.5%, for 30 min, on ice. Following resuspension of in 300 μl PBS/BSA 0.5%, cells were analysed for IgG binding using a FACScan instrument.
# [1] = Single dose study in the rat (BI-505 pharmacokinetics); format: in vivo; conditions: for tmax: iv
# Description: AUC0-tlast=area under the serum concentration-time curve from time zero to last quantifiable concentration; AUC0-∞=area under the serum concentration-time curve from time zero to infinity; Cmax=maximum observed serum concentration; tmax=time of maximum observed serum concentration; t1/2=apparent terminal elimination half-life; CL=total serum clearance; Vss=apparent volume of distribution at steady-state; Vz=apparent volume of distribution during the terminal elimination phase. There were six animals per sex and treatment group.
# Rats (n=6 per sex and treatment, for a total of 36 rats) were given 0.5, 2.5 or 10 mg/kg BI-505 as a single i.v. treatment. Blood was drawn from the caudal vein of rats at the following time-points: pre-dose, 15 min, 30 min, 1 hr, 2 hr, 8 hr, 24 hr, 2 days, 3 days, 5 days, 8 days, 2 weeks and 3 weeks. BI-505 serum concentrations were determined by ELISA from 15-18 samples per time-point, collected from alternating animals. Pharmacokinetics was calculated from the individual animal serum concentration-time data of BI-505 using non-compartmental analyses. […]
# CL-01 B lymphoma cells = experiment: Mitochondrial membrane depolarisation assay (JC-1); format: cell-based, human; conditions: CL-01, JC-1 staining, 2 μg/ml IgG cross-linked, 6 h
# Experimental: FIG. 4A. […] Cells were incubated at 37° C. for 6 h and the effect of the antibody incubation was determined by two independent apoptosis assays. Cells were stained either by AV/PI (upper panel), similarly as described above, or by incubation with 5 μg/ml of the mitochondrial membrane depolarisation reagent JC-1 for 30 min at RT (lower panel). Induction of apoptosis is detectable by a decrease in the red (y-axis)/green (x-axis) fluorescence intensity ratio. (FIG. 4B) Histology section showing representative binding of B11 antibody to B lymphoma tissue. Cryo-preserved tissue obtained from a patient with Anaplastic Large Cell B Lymphoma was stained with B11 or FITC-8 (control) scFv antibody. Antibody binding was detected with DAB (brown colour). […] IgG B11 binding to the different cell populations was recorded in the FL4 channel.
# Mitochondrial membrane depolarisation was analysed as previously described (Kim et al., Mol. Biol. Cell (2004) 15:420-434). […] Cells were washed twice in ice-cold PBS and resuspended in […] PBS and analysed on a FACS Aria (BD Biosciences). The green and red fluorescence was collected through 494/518 nm (FL-1) and 595/615 nm (FL-2) bandpass filters, respectively. […]
# ICAM-2 = biological target: T1, ICAM-2 (Homo sapiens, UniProt P13598); experiment: Binding to recombinant ICAM family protein
# T1 sequence (P13598 25-275): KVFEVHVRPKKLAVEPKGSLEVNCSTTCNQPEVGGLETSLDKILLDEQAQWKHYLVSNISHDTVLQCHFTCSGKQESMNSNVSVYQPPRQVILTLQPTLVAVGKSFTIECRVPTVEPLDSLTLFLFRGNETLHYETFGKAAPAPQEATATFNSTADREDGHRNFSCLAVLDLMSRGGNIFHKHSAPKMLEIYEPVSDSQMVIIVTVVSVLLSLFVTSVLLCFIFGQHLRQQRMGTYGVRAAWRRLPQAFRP
# [2] = mouse
# Experimental: Blood samples collected from the vena cava were centrifuged at 2500 g for 15 min to obtain serum and the samples were stored at −20° C.
# Sera were prepared from blood samples collected from the vena saphena from 3 animals in each group at different time-points during the course of in vivo experimentation. Briefly, ELISA plates were coated over night with human ICAM-1 protein. The following day, plates were incubated with the serum samples. Biotinylated goat-anti-BI-505 was used for detection of BI-505 in the serum samples. Sera were analysed by ELISA to determine BI-505 trough levels. Trough BI-505 serum concentrations were then plotted as a function of dose and were fitted using five parameter log-log curve and XLfit software (IDBS, Guildford, United Kingdom).
# [3] = tested on: Daudi B cell lymphoma xenografts; experiment: SCID/Daudi B cell lymphoma subcutaneous xenograft model; conditions: one day following tumor cell injection or established tumors
molecule,measurement,setting,value
B1,MFI,MDA MB 435,4000
same,Cmax,"[1]; Males, 10 mg/kg single IV",281 µg/mL
same,anti-BI-505 antibodies,[1]; in vivo,no anti-BI-505 antibodies were detected
same,half-life,[1]; in vivo,12 to 13 days
same,half-life corresponding in man,[1]; in vivo,2-3 weeks
same,tmax,"[1]; in vivo, 0.5 mg/kg",15 min
same,tmax,"[1]; in vivo, 10 mg/kg",30 min
same,mitochondrial membrane depolarisation,CL-01 B lymphoma cells,induce mitochondrial membrane depolarisation
same,binding to recombinant protein,ICAM-2,not to ICAM-2 or ICAM-3
same,In vivo serum concentrations,[2]; 0.02 mg/kg,0.06 ± 0.02 µg/mL
same,In vivo serum concentrations,[2]; 0.2 mg/kg,1.2 ± 0.4 µg/mL
same,In vivo serum concentrations,[2]; 2 mg/kg,20 ± 2.9 µg/mL
same,survival,[3],prolonged survival
same,tumor growth,[3],significantly prevented tumor growth
